Experiment [1] deals with T1, human CD3 on primary human pan-T cells (human, UniProt P07766 23-207; P09693 23-182; P04234 22-171; P20963 22-164).
T1 construct: whole, on cells; Native CD3 complex (pairs εγ, εδ, ζζ) on T cells isolated from human PBMCs; it is associated with the T cell receptor on the cells; also called CD3 on Pan-T cells; CD3 on T cells
As to the kind of experiment: Mirrorball laser scanning imaging cytometry on primary human pan-T cells with 600 µM HSA; detection with anti-penta-His Alexa Fluor 488; Median (FL-2 Mean Intensity) [B]. The procedure:
The determination of CD3 binding was performed with primary human T cells using Mirrorball laser scanning imaging cytometry. Therefore, primary T cells were isolated from human peripheral blood mononuclear cells (PBMCs) using a pan-T cell purification kit (Miltenyi Biotec). […] To generate the tri-specific TCE proteins, DARPin® protein #1, DARPin® protein #2, DARPin® protein #3 and DARPin® protein #4, respectively, was subcloned and expressed as described above into a derivative of the pQE30 (Qiagen) expression vector, encoding an N-terminal His-tag, followed by two different TAA-specific ankyrin repeat domains (in the order TAA2- and TAA3-specific, respectively), and then followed by one of the CD3-specific ankyrin repeat domains of the invention. […] After washing, CD3 binding was detected by 1:100-diluted anti-penta-His Alexa Fluor 488 antibody (Qiagen). […] Median of mean fluorescence intensities of Alexa Fluor 488 binding on far-red counterstained cells were measured by Mirrorball using Cellista software (SPT Labtech) and data was plotted using GraphPad Prism 8.

The target of experiment [2] is T2, biotinylated human scCD3εγ (scCD3εγ_Avi-Bio): single-chain human CD3ε/CD3γ extracellular domains joined by a … (human, biotinylated in vitro with BirA at the C-terminal Avi-tag).
T2 construct: monomeric; also called recombinant human CD3 target; human CD3 (SPR)
T2 chain: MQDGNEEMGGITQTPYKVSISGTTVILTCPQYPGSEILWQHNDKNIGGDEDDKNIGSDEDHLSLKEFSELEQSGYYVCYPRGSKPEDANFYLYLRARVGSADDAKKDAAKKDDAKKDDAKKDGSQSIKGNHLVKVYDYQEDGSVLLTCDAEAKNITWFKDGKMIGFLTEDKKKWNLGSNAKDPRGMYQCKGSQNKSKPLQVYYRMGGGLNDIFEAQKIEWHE
Description: ribosome display selection; crude extract HTRF on recombinant human CD3 target. The source says:
Using ribosome display (Hanes, J. and Plückthun, A., PNAS 94, 4937-42, 1997), many ankyrin repeat proteins with binding specificity for human scCD3 were selected from DARPin® libraries similar as described by Binz et al. 2004 (loc. cit.). […] For example, the ankyrin repeat domain of SEQ ID NO: 1 constitutes an amino acid sequence of a selected binding protein comprising an ankyrin repeat domain with binding specificity for scCD3. Individual ankyrin repeat modules from such ankyrin repeat domains with binding specificity to scCD3 are provided, e.g., in SEQ ID NO: 5 to 9.

The target in experiment [3] is biotinylated human scCD3εγ (scCD3εγ_Avi-Bio): single-chain human CD3ε/CD3γ extracellular domains joined by a 26 amino acid linker, with a C-terminal Avi-tag (human). Description: SPR (ProteOn), biotinylated scCD3εγ on NLC chip, DARPin as analyte 4-64 nM, PBS with 0.005% Tween 20; n = 6.
For experiment [4], the target named is T1, human CD3 on primary human pan-T cells. Description: Mirrorball laser scanning imaging cytometry on primary human pan-T cells with 600 µM HSA; detection with anti-penta-His Alexa Fluor 488; Median (FL-2 Mean Intensity) [A].
Experiment [5] shares this target. As to the kind of experiment: Mirrorball laser scanning imaging cytometry on primary human pan-T cells, 600 µM HSA, anti-penta-His Alexa Fluor 488 detection.
In experiment [6] the target is biotinylated human scCD3εγ (scCD3εγ_Avi-Bio): single-chain human CD3ε/CD3γ extracellular domains joined by a 26 amino acid linker, with a C-terminal Avi-tag (human). Description: SPR (ProteOn), biotinylated scCD3εγ on NLC chip, DARPin as analyte 4-64 nM, PBS with 0.005% Tween 20; n = 4.
Experiment [7] shares this target. Description: SPR (ProteOn), biotinylated scCD3εγ on NLC chip, DARPin as analyte 4-64 nM, PBS with 0.005% Tween 20; n = 2.

The record followed here is patent US20240052033A1 (Molecular Partners, published 2024).

A word on the EC50 (read off the curve): it is the concentration at which the effect is half-maximal. A higher EC50 (read off the curve) goes with lower potency in that assay. Broadly, the Kd is the equilibrium constant for the complex coming apart. Read a high Kd as weaker binding. As a reminder, the koff is a measure of how fast the partners let go of each other. A lower koff goes with slow dissociation. The term kon denotes the rate constant with which the complex forms. Lower therefore signals slow association. By EC50 is commonly meant the concentration at which the effect is half-maximal.

T1 sequence (P07766 23-207, chain 1 of 4): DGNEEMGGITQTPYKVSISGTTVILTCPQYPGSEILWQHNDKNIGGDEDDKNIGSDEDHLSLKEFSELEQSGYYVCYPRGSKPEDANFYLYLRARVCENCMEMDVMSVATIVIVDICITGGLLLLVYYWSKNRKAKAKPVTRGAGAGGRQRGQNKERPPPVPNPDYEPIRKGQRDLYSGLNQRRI
T1 sequence (P09693 23-182, chain 2 of 4): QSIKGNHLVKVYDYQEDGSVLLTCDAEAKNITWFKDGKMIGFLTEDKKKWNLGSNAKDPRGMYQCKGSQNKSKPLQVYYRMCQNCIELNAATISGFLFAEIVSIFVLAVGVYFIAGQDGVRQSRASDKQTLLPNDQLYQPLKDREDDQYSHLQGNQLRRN
T1 sequence (P04234 22-171, chain 3 of 4): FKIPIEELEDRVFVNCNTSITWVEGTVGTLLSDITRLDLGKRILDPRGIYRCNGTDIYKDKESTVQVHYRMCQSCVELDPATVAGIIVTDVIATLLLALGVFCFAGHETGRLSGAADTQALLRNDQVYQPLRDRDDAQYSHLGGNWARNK
T1 sequence (P20963 22-164, chain 4 of 4): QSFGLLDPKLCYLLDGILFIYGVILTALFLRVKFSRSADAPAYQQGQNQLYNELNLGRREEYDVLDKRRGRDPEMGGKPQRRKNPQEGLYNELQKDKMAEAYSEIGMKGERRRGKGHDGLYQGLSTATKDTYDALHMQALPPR

B1: DARPin® protein A (with HSA) (designed binder)
single chain: DLGQKLLEAAWAGQDDEVRELLKAGADVNAKDSQGWTPLHTAAQTGHLEIFEVLLKAGADVNAKDDKGVTPLHLAAALGHLEIVEVLLKAGADVNAQDSWGTTPADLAAKYGHEDIAEVLQKAA
notes: The MOLECULES list holds the half-life extended forms of B, C and D only; also called DARPin® protein A with half-life extension
On to B1, for which the binding result in experiment [1] is on record as “no binding (tested: about 3000 nM)”.

B2: SEQ ID NO 1 (designed binder)
chain: DLGQKLLEAAWAGQDDEVRELLKAGADVNAKDSQGWTPLHTAAQTGHLEIFEVLLKAGADVNAKDDKGVTPLHLAAALGHLEIVEVLLKAGADVNAQDSWGTTPADLAAKYGHEDIAEVLQKAA
notes: also called CD3-specific domain of DARPin® protein #1
Turning to B2, in experiment [2], the binding result is given as “binds”.

B3: DARPin® protein D with half-life extension (tetraspecific format: His-tag, HSA-specific domain, TAA2-specific domain, TAA3-specific domain, DARPin® protein #4) (designed binder, not shown: large carriers; small tags and cut ends)
chain: DLGQKLLEAAWAGQLDEVRILLKAGADVNAKNSRGWTPLHTAAQTGHLEIFEVLLKAGADVNAKTNKRVTPLHLAAALGHLEIVEVLLKAGADVNARDTWGTTPADLAAKYGHRDIAEVLQKAA
notes: also called half-life extended DARPin® protein D; DARPin® protein #H
For the molecule B3, in experiment [1], the “EC50 (read off the curve)” value was around 20 nM.

B4: DARPin® protein #4 with TAA2/TAA3 domains (trispecific format: His-tag, TAA2-specific domain, TAA3-specific domain, CD3-specific domain) (designed binder, part only; not given: CD123 and CD33 DARPin domains, not shown: small tags and cut ends)
chain, part: MRGSHHHHHHGSGSPTPTPTTPTPTPTTPTPTPTGSPTPTPTTPTPTPTTPTPTPTDLGQKLLEAAWAGQLDEVRILLKAGADVNAKNSRGWTPLHTAAQTGHLEIFEVLLKAGADVNAKTNKRVTPLHLAAALGHLEIVEVLLKAGADVNARDTWGTTPADLAAKYGHRDIAEVLQKAA
In experiment [3], B4 showed a Kd of 6 nM, a koff of 0.00041 s⁻¹ and a kon of 82000 M⁻¹ s⁻¹. The same molecule displayed an EC50 (read off the curve) in experiment [4] of 6 nM. This molecule also registered an EC50 in experiment [5] of 5 to 15 nM.

B5: DARPin® protein #3 with TAA2/TAA3 domains (trispecific format: His-tag, TAA2-specific domain, TAA3-specific domain, CD3-specific domain) (designed binder, part only; not given: CD123 and CD33 DARPin domains, not shown: small tags and cut ends)
chain, part: MRGSHHHHHHGSGSPTPTPTTPTPTPTTPTPTPTGSPTPTPTTPTPTPTTPTPTPTDLGQKLLEAAWAGQDDEVRELLKAGADVNAKNSRGWTPLHTAAQTGHLEIFEVLLKAGADVNAKNDKRVTPLHLAAALGHLEIVEVLLKAGADVNARDSWGTTPADLAAKYGHQDIAEVLQKAA
As to B5, in experiment [6], the Kd is 15 nM, the koff was 0.0013 s⁻¹ and the kon turned out to be 89000 M⁻¹ s⁻¹. Moreover, the EC50 in experiment [5] is 50 to 100 nM.

B6: DARPin® protein #2 with TAA2/TAA3 domains (trispecific format: His-tag, TAA2-specific domain, TAA3-specific domain, CD3-specific domain) (designed binder, part only; not given: CD123 and CD33 DARPin domains, not shown: small tags and cut ends)
chain, part: MRGSHHHHHHGSGSPTPTPTTPTPTPTTPTPTPTGSPTPTPTTPTPTPTTPTPTPTDLGQKLLEAAWAGQDDEVRELLKAGADVNAKNSRGWTPLHTAAQTGHLEIFEVLLKAGADVNAKDDKGVTPLHLAAALGHLEIVEVLLKAGADVNAQDSWGTTPADLAAKYGHEDIAEVLQKAA
In experiment [7], B6 displayed a Kd of 35 nM, a koff of 0.0015 s⁻¹ and a kon of 49000 M⁻¹ s⁻¹. Besides, the 50% effective concentration (EC50) in experiment [5] was 250 to 400 nM.
